In doi:10.1101/2020.01.12.903617, “The peptide sensor motif stabilizes the outward-facing conformation of TmrAB” (bioRxiv, 2020):
No end group written: not given here. fluorescein = fluorescein label attached to the Cys side chain

Legend:
[1] = biological target: T1, WT TmrAB, heterodimeric peptide exporter from Thermus thermophilus (Thermus thermophilus, UniProt Q72J05 1-600; Q72J04 1-578); assay: fluorescence polarisation; 1.7 uM TmrAB with 50 nM RRY(C^Fluorescein)KSTEL in SEC buffer (20 mM HEPES, 150 mM NaCl, pH 7, 0.05% ß-DDM), 15 minutes on ice, in the absence or presence of 5 mM ATP and 10 mM MgCl2; read at 25°C (the results say 4°C); signal normalized to WT without ATP; conditions: both partners purified
T1 construct: TmrA, Thermus thermophilus, the chain of TmrAB with the canonical Walker B motif; TmrB, Thermus thermophilus, the chain of TmrAB with the non-canonical Walker B motif; TmrAB template in pet22b; also called wild-type TmrAB
T1 sequence 1: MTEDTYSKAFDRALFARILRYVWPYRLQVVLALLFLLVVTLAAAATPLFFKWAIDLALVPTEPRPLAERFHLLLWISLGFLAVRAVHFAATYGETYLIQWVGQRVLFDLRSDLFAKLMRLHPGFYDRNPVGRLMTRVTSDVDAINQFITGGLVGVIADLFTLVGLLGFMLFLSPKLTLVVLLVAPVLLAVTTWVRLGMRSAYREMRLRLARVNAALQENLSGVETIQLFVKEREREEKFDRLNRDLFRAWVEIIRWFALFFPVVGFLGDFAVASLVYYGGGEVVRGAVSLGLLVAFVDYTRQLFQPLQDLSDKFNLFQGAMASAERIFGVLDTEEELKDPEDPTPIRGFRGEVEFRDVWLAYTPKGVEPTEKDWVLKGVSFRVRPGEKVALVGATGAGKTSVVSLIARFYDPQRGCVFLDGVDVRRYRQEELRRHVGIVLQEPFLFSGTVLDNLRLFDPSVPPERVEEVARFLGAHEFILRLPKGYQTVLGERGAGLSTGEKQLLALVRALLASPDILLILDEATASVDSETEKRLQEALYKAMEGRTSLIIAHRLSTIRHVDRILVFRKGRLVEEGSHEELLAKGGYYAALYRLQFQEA
T1 sequence 2: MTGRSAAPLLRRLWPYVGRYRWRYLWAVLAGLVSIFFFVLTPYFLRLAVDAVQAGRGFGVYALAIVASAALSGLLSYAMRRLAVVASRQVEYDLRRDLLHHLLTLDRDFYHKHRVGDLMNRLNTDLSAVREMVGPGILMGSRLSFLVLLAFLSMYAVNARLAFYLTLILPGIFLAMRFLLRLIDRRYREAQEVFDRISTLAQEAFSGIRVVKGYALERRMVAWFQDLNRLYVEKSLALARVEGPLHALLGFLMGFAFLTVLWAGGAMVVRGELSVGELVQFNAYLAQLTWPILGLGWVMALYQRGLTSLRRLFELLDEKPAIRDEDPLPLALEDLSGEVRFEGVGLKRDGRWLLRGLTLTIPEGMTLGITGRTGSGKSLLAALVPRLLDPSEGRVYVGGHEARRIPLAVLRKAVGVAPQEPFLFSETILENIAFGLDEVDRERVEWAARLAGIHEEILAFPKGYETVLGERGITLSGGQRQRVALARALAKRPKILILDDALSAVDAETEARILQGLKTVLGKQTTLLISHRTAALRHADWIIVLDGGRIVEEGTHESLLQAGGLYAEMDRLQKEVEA

[2] = biological target: T2, TmrAB D117A^TmrB (Thermus thermophilus, UniProt Q72J05 1-600; Q72J04 1-578, D117A); assay: as above; conditions: both partners purified
T2 construct: TmrA, Thermus thermophilus, the chain of TmrAB with the canonical Walker B motif; TmrB, Thermus thermophilus, the chain of TmrAB with the non-canonical Walker B motif
T2 sequence 1: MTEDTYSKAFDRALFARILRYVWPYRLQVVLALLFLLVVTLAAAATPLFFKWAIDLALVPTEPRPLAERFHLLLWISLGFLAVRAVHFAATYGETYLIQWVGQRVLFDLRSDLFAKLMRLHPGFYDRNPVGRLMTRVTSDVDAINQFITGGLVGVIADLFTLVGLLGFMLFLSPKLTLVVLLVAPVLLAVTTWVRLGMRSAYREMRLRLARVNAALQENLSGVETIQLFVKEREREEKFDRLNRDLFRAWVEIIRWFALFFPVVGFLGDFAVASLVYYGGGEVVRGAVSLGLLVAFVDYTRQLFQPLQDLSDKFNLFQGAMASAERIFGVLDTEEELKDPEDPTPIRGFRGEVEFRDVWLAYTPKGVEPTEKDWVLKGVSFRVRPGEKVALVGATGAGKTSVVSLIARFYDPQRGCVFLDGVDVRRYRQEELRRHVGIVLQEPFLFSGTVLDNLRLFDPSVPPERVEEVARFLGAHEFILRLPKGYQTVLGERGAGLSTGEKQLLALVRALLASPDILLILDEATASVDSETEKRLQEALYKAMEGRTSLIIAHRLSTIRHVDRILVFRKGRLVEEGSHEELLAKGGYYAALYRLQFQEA
T2 sequence 2: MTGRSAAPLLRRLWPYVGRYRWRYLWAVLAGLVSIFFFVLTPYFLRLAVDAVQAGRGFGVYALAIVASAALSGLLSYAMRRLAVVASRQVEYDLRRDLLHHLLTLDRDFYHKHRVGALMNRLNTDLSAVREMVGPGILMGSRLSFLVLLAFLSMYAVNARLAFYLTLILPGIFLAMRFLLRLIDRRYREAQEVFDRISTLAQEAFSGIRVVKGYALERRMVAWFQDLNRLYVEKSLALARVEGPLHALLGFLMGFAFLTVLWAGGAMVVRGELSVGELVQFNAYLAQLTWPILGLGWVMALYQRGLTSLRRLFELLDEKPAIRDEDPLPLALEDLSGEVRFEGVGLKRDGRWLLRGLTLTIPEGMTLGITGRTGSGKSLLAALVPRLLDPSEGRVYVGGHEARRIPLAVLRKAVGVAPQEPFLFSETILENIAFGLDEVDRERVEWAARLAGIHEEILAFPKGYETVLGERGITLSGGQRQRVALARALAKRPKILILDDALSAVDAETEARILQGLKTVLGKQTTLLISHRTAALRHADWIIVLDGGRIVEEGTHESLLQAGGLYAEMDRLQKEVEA

B1: fluorescent transport substrate peptide RRY(C^Fluorescein)KSTEL (peptide)
peptide: RRYC(fluorescein)KSTEL
notes: fluorescein-labelled transport substrate peptide of TmrAB; also called fluorescently-labeled peptide substrate; peptide substrate; source: bought: Genscript
binding result [1]: binds | binding result [2]: binds
